Measured values: doi:10.1101/2024.05.10.593077
“And” between values parts separate entries of the source, which are not always exact repeats. Equal values may be shown once.

How the values were obtained:
[1] = target: Human FcγRI (WT) (human) (UniProt P12314); test: high-speed atomic force microscopy
[2] = target: Human FcγRI (WT) (human) (UniProt P12314); test: SPR
[3] = target: Trastuzumab ΔP230 (IgG1 with deletion of Pro230 in the lower hinge) (human); test: SEC

Chain of UniProt P12314 (P12314 16-292): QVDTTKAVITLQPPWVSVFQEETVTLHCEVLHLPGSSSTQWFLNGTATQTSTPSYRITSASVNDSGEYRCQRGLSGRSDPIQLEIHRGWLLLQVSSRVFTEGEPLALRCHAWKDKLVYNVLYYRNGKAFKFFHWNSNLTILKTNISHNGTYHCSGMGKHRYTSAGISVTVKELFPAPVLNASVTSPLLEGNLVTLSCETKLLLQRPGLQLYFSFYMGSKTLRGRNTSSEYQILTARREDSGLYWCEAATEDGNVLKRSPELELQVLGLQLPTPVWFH

Q: How did the stoichiometry N (ΔP230:FcγRI (mol:mol)) [1] turn out when “Trastuzumab ΔP230 (IgG1 with deletion of Pro230 in the lower hinge) (antibody)” was run?
A: 1 and 2

Q: And the Kd [2]?
A: 23.5 nM

Q: What about the ratio monomer:dimer (monomer:dimer) [3] of the same substance?
A: 6

Q: For “Trastuzumab WT, anti-HER2 humanized IgG1 (antibody)”, which stoichiometry N (IgG1 WT:FcγRI) [1] is on record?
A: 1

Q: And the Kd [2]?
A: 0.89 nM

Q: For “Trastuzumab CSCS (IgG1 with the double substitution Cys226Ser and Cys229Ser) (antibody)”, which Kd [2] is on record?
A: 0.92 nM
